Test results: patent US20260070987A1

Target: equine FcRn (large alpha subunit p51) / equine beta-2-microglobulin complex, biotinylated (equine) (UniProt P30441)
Test: SPR (Biacore), pH 6

Sequence of UniProt P30441 (P30441 21-118, one chain of several): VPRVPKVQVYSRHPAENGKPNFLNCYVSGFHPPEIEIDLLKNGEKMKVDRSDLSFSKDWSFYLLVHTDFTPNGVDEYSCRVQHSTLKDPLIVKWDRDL

Binder	Kd
equine IgG1 Y436H (antibody, part only; not given: variable domains, not shown: another chain or arm of the molecule) constant: ASTTAPKVFALAPGCGTTSDSTVALGCLVSGYFPEPVKVSWNSGSLTSGVHTFPSVLQSSGFYSLSSMVTVPASTWTSETYICNVVHAASNFKVDKRIEPIPDNHQKVCDMSKCPKCPAPELLGGPSVFIFPPNPKDTLMITRTPEVTCVVVDVSQENPDVKFNWYMDGVEVRTATTRPKEEQFNSTYRVVSVLRIQHQDWLSGKEFKCKVNNQALPQPIERTITKTKGRSQEPQVYVLAPHPDELSKSKVSVTCLVKDFYPPEINIEWQSNGQPELETKYSTTQAQQDSDGSYFLYSKLSVDRNRWQQGTTFTCGVMHEALHNHHTQKNVSKNPGK	19.1 nM
equine IgG1 Y436I (antibody, part only; not given: variable domains, not shown: another chain or arm of the molecule) constant: ASTTAPKVFALAPGCGTTSDSTVALGCLVSGYFPEPVKVSWNSGSLTSGVHTFPSVLQSSGFYSLSSMVTVPASTWTSETYICNVVHAASNFKVDKRIEPIPDNHQKVCDMSKCPKCPAPELLGGPSVFIFPPNPKDTLMITRTPEVTCVVVDVSQENPDVKFNWYMDGVEVRTATTRPKEEQFNSTYRVVSVLRIQHQDWLSGKEFKCKVNNQALPQPIERTITKTKGRSQEPQVYVLAPHPDELSKSKVSVTCLVKDFYPPEINIEWQSNGQPELETKYSTTQAQQDSDGSYFLYSKLSVDRNRWQQGTTFTCGVMHEALHNHITQKNVSKNPGK	7.84 nM
equine IgG1 Y436K (antibody, part only; not given: variable domains, not shown: another chain or arm of the molecule) constant: ASTTAPKVFALAPGCGTTSDSTVALGCLVSGYFPEPVKVSWNSGSLTSGVHTFPSVLQSSGFYSLSSMVTVPASTWTSETYICNVVHAASNFKVDKRIEPIPDNHQKVCDMSKCPKCPAPELLGGPSVFIFPPNPKDTLMITRTPEVTCVVVDVSQENPDVKFNWYMDGVEVRTATTRPKEEQFNSTYRVVSVLRIQHQDWLSGKEFKCKVNNQALPQPIERTITKTKGRSQEPQVYVLAPHPDELSKSKVSVTCLVKDFYPPEINIEWQSNGQPELETKYSTTQAQQDSDGSYFLYSKLSVDRNRWQQGTTFTCGVMHEALHNHKTQKNVSKNPGK	18 nM
equine IgG1 Y436L (antibody, part only; not given: variable domains, not shown: another chain or arm of the molecule) constant: ASTTAPKVFALAPGCGTTSDSTVALGCLVSGYFPEPVKVSWNSGSLTSGVHTFPSVLQSSGFYSLSSMVTVPASTWTSETYICNVVHAASNFKVDKRIEPIPDNHQKVCDMSKCPKCPAPELLGGPSVFIFPPNPKDTLMITRTPEVTCVVVDVSQENPDVKFNWYMDGVEVRTATTRPKEEQFNSTYRVVSVLRIQHQDWLSGKEFKCKVNNQALPQPIERTITKTKGRSQEPQVYVLAPHPDELSKSKVSVTCLVKDFYPPEINIEWQSNGQPELETKYSTTQAQQDSDGSYFLYSKLSVDRNRWQQGTTFTCGVMHEALHNHLTQKNVSKNPGK	12.4 nM
equine IgG1 Y436M (antibody, part only; not given: variable domains, not shown: another chain or arm of the molecule) constant: ASTTAPKVFALAPGCGTTSDSTVALGCLVSGYFPEPVKVSWNSGSLTSGVHTFPSVLQSSGFYSLSSMVTVPASTWTSETYICNVVHAASNFKVDKRIEPIPDNHQKVCDMSKCPKCPAPELLGGPSVFIFPPNPKDTLMITRTPEVTCVVVDVSQENPDVKFNWYMDGVEVRTATTRPKEEQFNSTYRVVSVLRIQHQDWLSGKEFKCKVNNQALPQPIERTITKTKGRSQEPQVYVLAPHPDELSKSKVSVTCLVKDFYPPEINIEWQSNGQPELETKYSTTQAQQDSDGSYFLYSKLSVDRNRWQQGTTFTCGVMHEALHNHMTQKNVSKNPGK	11.1 nM
equine IgG1 Y436N (antibody, part only; not given: variable domains, not shown: another chain or arm of the molecule) constant: ASTTAPKVFALAPGCGTTSDSTVALGCLVSGYFPEPVKVSWNSGSLTSGVHTFPSVLQSSGFYSLSSMVTVPASTWTSETYICNVVHAASNFKVDKRIEPIPDNHQKVCDMSKCPKCPAPELLGGPSVFIFPPNPKDTLMITRTPEVTCVVVDVSQENPDVKFNWYMDGVEVRTATTRPKEEQFNSTYRVVSVLRIQHQDWLSGKEFKCKVNNQALPQPIERTITKTKGRSQEPQVYVLAPHPDELSKSKVSVTCLVKDFYPPEINIEWQSNGQPELETKYSTTQAQQDSDGSYFLYSKLSVDRNRWQQGTTFTCGVMHEALHNHNTQKNVSKNPGK	23.1 nM
equine IgG1 Y436Q (antibody, part only; not given: variable domains, not shown: another chain or arm of the molecule) constant: ASTTAPKVFALAPGCGTTSDSTVALGCLVSGYFPEPVKVSWNSGSLTSGVHTFPSVLQSSGFYSLSSMVTVPASTWTSETYICNVVHAASNFKVDKRIEPIPDNHQKVCDMSKCPKCPAPELLGGPSVFIFPPNPKDTLMITRTPEVTCVVVDVSQENPDVKFNWYMDGVEVRTATTRPKEEQFNSTYRVVSVLRIQHQDWLSGKEFKCKVNNQALPQPIERTITKTKGRSQEPQVYVLAPHPDELSKSKVSVTCLVKDFYPPEINIEWQSNGQPELETKYSTTQAQQDSDGSYFLYSKLSVDRNRWQQGTTFTCGVMHEALHNHQTQKNVSKNPGK	14.6 nM
equine IgG1 Y436R (antibody, part only; not given: variable domains, not shown: another chain or arm of the molecule) constant: ASTTAPKVFALAPGCGTTSDSTVALGCLVSGYFPEPVKVSWNSGSLTSGVHTFPSVLQSSGFYSLSSMVTVPASTWTSETYICNVVHAASNFKVDKRIEPIPDNHQKVCDMSKCPKCPAPELLGGPSVFIFPPNPKDTLMITRTPEVTCVVVDVSQENPDVKFNWYMDGVEVRTATTRPKEEQFNSTYRVVSVLRIQHQDWLSGKEFKCKVNNQALPQPIERTITKTKGRSQEPQVYVLAPHPDELSKSKVSVTCLVKDFYPPEINIEWQSNGQPELETKYSTTQAQQDSDGSYFLYSKLSVDRNRWQQGTTFTCGVMHEALHNHRTQKNVSKNPGK	25.6 nM
equine IgG1 Y436S (antibody, part only; not given: Variable domains, not shown: another chain or arm of the molecule) constant: ASTTAPKVFALAPGCGTTSDSTVALGCLVSGYFPEPVKVSWNSGSLTSGVHTFPSVLQSSGFYSLSSMVTVPASTWTSETYICNVVHAASNFKVDKRIEPIPDNHQKVCDMSKCPKCPAPELLGGPSVFIFPPNPKDTLMITRTPEVTCVVVDVSQENPDVKFNWYMDGVEVRTATTRPKEEQFNSTYRVVSVLRIQHQDWLSGKEFKCKVNNQALPQPIERTITKTKGRSQEPQVYVLAPHPDELSKSKVSVTCLVKDFYPPEINIEWQSNGQPELETKYSTTQAQQDSDGSYFLYSKLSVDRNRWQQGTTFTCGVMHEALHNHSTQKNVSKNPGK	13.5 nM
equine IgG1 Y436T (antibody, part only; not given: variable domains, not shown: another chain or arm of the molecule) constant: ASTTAPKVFALAPGCGTTSDSTVALGCLVSGYFPEPVKVSWNSGSLTSGVHTFPSVLQSSGFYSLSSMVTVPASTWTSETYICNVVHAASNFKVDKRIEPIPDNHQKVCDMSKCPKCPAPELLGGPSVFIFPPNPKDTLMITRTPEVTCVVVDVSQENPDVKFNWYMDGVEVRTATTRPKEEQFNSTYRVVSVLRIQHQDWLSGKEFKCKVNNQALPQPIERTITKTKGRSQEPQVYVLAPHPDELSKSKVSVTCLVKDFYPPEINIEWQSNGQPELETKYSTTQAQQDSDGSYFLYSKLSVDRNRWQQGTTFTCGVMHEALHNHTTQKNVSKNPGK	15.2 nM
equine IgG1 T286G (antibody, part only; not given: variable domains, not shown: another chain or arm of the molecule) constant: ASTTAPKVFALAPGCGTTSDSTVALGCLVSGYFPEPVKVSWNSGSLTSGVHTFPSVLQSSGFYSLSSMVTVPASTWTSETYICNVVHAASNFKVDKRIEPIPDNHQKVCDMSKCPKCPAPELLGGPSVFIFPPNPKDTLMITRTPEVTCVVVDVSQENPDVKFNWYMDGVEVRGATTRPKEEQFNSTYRVVSVLRIQHQDWLSGKEFKCKVNNQALPQPIERTITKTKGRSQEPQVYVLAPHPDELSKSKVSVTCLVKDFYPPEINIEWQSNGQPELETKYSTTQAQQDSDGSYFLYSKLSVDRNRWQQGTTFTCGVMHEALHNHYTQKNVSKNPGK	15 nM
equine IgG1 Y436V (antibody, part only; not given: variable domains, not shown: another chain or arm of the molecule) constant: ASTTAPKVFALAPGCGTTSDSTVALGCLVSGYFPEPVKVSWNSGSLTSGVHTFPSVLQSSGFYSLSSMVTVPASTWTSETYICNVVHAASNFKVDKRIEPIPDNHQKVCDMSKCPKCPAPELLGGPSVFIFPPNPKDTLMITRTPEVTCVVVDVSQENPDVKFNWYMDGVEVRTATTRPKEEQFNSTYRVVSVLRIQHQDWLSGKEFKCKVNNQALPQPIERTITKTKGRSQEPQVYVLAPHPDELSKSKVSVTCLVKDFYPPEINIEWQSNGQPELETKYSTTQAQQDSDGSYFLYSKLSVDRNRWQQGTTFTCGVMHEALHNHVTQKNVSKNPGK	9.06 nM
equine IgG1 Y436W (antibody, part only; not given: Variable domains, not shown: another chain or arm of the molecule) constant: ASTTAPKVFALAPGCGTTSDSTVALGCLVSGYFPEPVKVSWNSGSLTSGVHTFPSVLQSSGFYSLSSMVTVPASTWTSETYICNVVHAASNFKVDKRIEPIPDNHQKVCDMSKCPKCPAPELLGGPSVFIFPPNPKDTLMITRTPEVTCVVVDVSQENPDVKFNWYMDGVEVRTATTRPKEEQFNSTYRVVSVLRIQHQDWLSGKEFKCKVNNQALPQPIERTITKTKGRSQEPQVYVLAPHPDELSKSKVSVTCLVKDFYPPEINIEWQSNGQPELETKYSTTQAQQDSDGSYFLYSKLSVDRNRWQQGTTFTCGVMHEALHNHWTQKNVSKNPGK	10.2 nM
equine IgG4 WT (antibody, part only; not given: Variable domains; allotype unconfirmed, not shown: another chain or arm of the molecule) constant: ASTTAPKVFPLASHSAATSGSTVALGCLVSSYFPEPVTVSWNSGALTSGVHTFPSVLQSSGLYSLSSMVTVPASSLKSQTYICNVAHPASSTKVDKKIVIKECNGGCPAECLQVGPSVFIFPPKPKDVLMISRTPTVTCVVVDVGHDFPDVQFNWYVDGVETHTATTEPKQEQFNSTYRVVSVLPIQHKDWLSGKEFKCKVNNKALPAPVERTISKPTGQPREPQVYVLAPHRDELSKNKVSVTCLVKDFYPTDIDIEWKSNGQPEPETKYSTTPAQLDSDGSYFLYSKLTVETNRWQQGTTFTCAVMHEALHNHYTEKSVSKSPGK	22.5 nM
equine IgG4 K311A (antibody, part only; not given: variable domains, not shown: another chain or arm of the molecule) constant: ASTTAPKVFPLASHSAATSGSTVALGCLVSSYFPEPVTVSWNSGALTSGVHTFPSVLQSSGLYSLSSMVTVPASSLKSQTYICNVAHPASSTKVDKKIVIKECNGGCPAECLQVGPSVFIFPPKPKDVLMISRTPTVTCVVVDVGHDFPDVQFNWYVDGVETHTATTEPKQEQFNSTYRVVSVLPIQHADWLSGKEFKCKVNNKALPAPVERTISKPTGQPREPQVYVLAPHRDELSKNKVSVTCLVKDFYPTDIDIEWKSNGQPEPETKYSTTPAQLDSDGSYFLYSKLTVETNRWQQGTTFTCAVMHEALHNHYTEKSVSKSPGK	24.8 nM
equine IgG4 K311C (antibody, part only; not given: variable domains, not shown: another chain or arm of the molecule; small tags and cut ends) constant: ASTTAPKVFPLASHSAATSGSTVALGCLVSSYFPEPVTVSWNSGALTSGVHTFPSVLQSSGLYSLSSMVTVPASSLKSQTYICNVAHPASSTKVDKKIVIKECNGGCPAECLQVGPSVFIFPPKPKDVLMISRTPTVTCVVVDVGHDFPDVQFNWYVDGVETHTATTEPKQEQFNSTYRVVSVLPIQHCDWLSGKEFKCKVNNKALPAPVERTISKPTGQPREPQVYVLAPHRDELSKNKVSVTCLVKDFYPTDIDIEWKSNGQPEPETKYSTTPAQLDSDGSYFLYSKLTVETNRWQQGTTFTCAVMHEALHNHYTEKSVSKSPGK	23.5 nM
